Legend:
[1] = molecular target: 3xFlag-LRRK1 wild-type (leucine-rich repeat kinase 1), full-length (human) (UniProt Q38SD2); test: immunogold labelling + negative-stain transmission electron microscopy; purified 3xFlag proteins diluted to 5 ng/ul in 20 mM Tris-HCl pH 7.5, 150 mM NaCl, 0.02% Tween 20 or Triton X-100; uranyl acetate stain; anti-Flag M2 primary and 5 nm gold secondary antibody; distances between gold particles and particle diameters measured
[2] = molecular target: 3xFlag-LRRK1 K650A GTP deficient binding mutant, full-length (human) (UniProt Q38SD2); test: as above
[3] = molecular target: 3xFlag-LRRK2 K1906M kinase dead mutant, full-length (human) (UniProt Q5S007); test: as above
[4] = molecular target: 3xFlag-LRRK2 T1348N GTP deficient binding mutant, full-length (human) (UniProt Q5S007); test: as above
[5] = molecular target: 3xFlag-LRRK2 G2019S pathogenic mutant, full-length (human) (UniProt Q5S007); test: as above; details: remark: other sources report otherwise
3xFlag-LRRK1 = molecular target: T1, 3xFlag-LRRK1 (Homo sapiens, UniProt Q38SD2); test: pulldown from cell lysate on ATP-agarose, competed by free ATP; assay type: binding; details: ATP-depleted lysate, pH 7.4, 5 mM MgCl2, 4°C; competed by 1 mM ATP, not GTP; kinase domain site
T1 construct: homodimer

3xFlag-LRRK2 = molecular target: T2, 3xFlag-LRRK2 (Homo sapiens, UniProt Q5S007); test: as above; assay type: binding; details: ATP-depleted lysate, pH 7.4, 5 mM MgCl2, 4°C; competed by 1 mM ATP, not GTP; kinase domain site
T2 construct: homodimer

[6] = molecular target: the molecule itself; test: immunogold labelling + negative-stain transmission electron microscopy; purified 3xFlag proteins diluted to 5 ng/ul in 20 mM Tris-HCl pH 7.5, 150 mM NaCl, 0.02% Tween 20 or Triton X-100; uranyl acetate stain; anti-Flag M2 primary and 5 nm gold secondary antibody; distances between gold particles and particle diameters measured

T2 sequence (Q5S007 whole entry, the tested form may be a part): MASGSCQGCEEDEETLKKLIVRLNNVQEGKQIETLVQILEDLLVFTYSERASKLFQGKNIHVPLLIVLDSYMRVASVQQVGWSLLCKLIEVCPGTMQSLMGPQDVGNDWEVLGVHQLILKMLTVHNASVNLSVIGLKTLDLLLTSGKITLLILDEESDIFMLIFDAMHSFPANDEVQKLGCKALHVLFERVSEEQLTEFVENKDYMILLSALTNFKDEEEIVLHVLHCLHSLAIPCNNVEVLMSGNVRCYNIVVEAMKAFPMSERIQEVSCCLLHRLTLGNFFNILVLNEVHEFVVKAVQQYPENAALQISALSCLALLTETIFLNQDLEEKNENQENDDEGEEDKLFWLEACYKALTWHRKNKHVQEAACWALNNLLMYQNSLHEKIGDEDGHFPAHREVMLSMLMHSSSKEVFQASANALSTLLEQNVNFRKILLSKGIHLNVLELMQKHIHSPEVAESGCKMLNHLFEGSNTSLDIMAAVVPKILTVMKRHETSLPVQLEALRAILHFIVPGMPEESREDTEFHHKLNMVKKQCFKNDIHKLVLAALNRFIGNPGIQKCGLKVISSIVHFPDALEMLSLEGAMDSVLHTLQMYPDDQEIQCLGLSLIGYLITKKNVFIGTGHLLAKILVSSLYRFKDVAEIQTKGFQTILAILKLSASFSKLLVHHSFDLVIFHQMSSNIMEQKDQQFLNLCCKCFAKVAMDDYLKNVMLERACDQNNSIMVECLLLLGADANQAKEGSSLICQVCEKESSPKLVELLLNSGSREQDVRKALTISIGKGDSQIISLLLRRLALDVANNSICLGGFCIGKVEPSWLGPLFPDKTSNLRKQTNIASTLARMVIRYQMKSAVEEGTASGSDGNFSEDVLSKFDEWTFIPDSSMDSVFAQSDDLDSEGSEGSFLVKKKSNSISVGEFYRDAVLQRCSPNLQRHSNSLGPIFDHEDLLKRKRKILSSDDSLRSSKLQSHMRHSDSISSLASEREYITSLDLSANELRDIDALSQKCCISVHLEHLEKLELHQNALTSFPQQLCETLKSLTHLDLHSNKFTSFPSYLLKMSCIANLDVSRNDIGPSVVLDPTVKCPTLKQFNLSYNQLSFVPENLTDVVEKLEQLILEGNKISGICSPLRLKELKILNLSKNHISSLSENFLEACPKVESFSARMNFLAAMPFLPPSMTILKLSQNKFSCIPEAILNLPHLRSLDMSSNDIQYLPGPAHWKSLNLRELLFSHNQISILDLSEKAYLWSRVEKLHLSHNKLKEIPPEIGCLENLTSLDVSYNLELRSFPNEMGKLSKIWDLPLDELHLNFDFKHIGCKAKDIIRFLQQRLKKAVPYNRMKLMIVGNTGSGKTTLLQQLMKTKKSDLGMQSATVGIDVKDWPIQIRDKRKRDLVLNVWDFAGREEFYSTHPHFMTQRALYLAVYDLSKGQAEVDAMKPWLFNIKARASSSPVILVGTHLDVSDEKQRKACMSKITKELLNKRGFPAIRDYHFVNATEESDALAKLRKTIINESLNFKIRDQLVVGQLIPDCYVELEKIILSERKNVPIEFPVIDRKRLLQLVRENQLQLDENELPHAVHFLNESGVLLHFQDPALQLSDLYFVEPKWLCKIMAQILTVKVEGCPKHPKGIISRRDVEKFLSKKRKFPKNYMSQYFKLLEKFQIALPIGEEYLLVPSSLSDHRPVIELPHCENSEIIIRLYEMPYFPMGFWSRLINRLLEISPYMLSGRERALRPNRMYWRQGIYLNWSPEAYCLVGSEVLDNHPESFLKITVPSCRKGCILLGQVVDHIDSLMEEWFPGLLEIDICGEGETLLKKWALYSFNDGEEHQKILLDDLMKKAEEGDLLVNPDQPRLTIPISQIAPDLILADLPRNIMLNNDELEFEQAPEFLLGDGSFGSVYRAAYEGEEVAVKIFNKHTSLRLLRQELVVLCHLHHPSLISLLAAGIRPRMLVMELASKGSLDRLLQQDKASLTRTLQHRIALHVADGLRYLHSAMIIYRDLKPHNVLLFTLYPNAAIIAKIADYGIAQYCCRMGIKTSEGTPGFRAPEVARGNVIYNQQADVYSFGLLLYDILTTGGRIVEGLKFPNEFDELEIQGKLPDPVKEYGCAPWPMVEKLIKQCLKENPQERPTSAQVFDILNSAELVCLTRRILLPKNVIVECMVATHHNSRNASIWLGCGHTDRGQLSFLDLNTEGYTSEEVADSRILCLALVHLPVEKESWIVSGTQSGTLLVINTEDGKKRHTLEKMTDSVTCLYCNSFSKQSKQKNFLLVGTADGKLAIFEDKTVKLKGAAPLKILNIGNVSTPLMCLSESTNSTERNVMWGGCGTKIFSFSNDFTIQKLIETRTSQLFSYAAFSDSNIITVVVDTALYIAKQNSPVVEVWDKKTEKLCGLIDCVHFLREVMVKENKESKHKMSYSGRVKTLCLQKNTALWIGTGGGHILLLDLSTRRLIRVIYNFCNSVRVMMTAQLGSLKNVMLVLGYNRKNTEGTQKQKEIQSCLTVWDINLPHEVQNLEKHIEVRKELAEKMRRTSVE
T1 sequence (Q38SD2 28-2015): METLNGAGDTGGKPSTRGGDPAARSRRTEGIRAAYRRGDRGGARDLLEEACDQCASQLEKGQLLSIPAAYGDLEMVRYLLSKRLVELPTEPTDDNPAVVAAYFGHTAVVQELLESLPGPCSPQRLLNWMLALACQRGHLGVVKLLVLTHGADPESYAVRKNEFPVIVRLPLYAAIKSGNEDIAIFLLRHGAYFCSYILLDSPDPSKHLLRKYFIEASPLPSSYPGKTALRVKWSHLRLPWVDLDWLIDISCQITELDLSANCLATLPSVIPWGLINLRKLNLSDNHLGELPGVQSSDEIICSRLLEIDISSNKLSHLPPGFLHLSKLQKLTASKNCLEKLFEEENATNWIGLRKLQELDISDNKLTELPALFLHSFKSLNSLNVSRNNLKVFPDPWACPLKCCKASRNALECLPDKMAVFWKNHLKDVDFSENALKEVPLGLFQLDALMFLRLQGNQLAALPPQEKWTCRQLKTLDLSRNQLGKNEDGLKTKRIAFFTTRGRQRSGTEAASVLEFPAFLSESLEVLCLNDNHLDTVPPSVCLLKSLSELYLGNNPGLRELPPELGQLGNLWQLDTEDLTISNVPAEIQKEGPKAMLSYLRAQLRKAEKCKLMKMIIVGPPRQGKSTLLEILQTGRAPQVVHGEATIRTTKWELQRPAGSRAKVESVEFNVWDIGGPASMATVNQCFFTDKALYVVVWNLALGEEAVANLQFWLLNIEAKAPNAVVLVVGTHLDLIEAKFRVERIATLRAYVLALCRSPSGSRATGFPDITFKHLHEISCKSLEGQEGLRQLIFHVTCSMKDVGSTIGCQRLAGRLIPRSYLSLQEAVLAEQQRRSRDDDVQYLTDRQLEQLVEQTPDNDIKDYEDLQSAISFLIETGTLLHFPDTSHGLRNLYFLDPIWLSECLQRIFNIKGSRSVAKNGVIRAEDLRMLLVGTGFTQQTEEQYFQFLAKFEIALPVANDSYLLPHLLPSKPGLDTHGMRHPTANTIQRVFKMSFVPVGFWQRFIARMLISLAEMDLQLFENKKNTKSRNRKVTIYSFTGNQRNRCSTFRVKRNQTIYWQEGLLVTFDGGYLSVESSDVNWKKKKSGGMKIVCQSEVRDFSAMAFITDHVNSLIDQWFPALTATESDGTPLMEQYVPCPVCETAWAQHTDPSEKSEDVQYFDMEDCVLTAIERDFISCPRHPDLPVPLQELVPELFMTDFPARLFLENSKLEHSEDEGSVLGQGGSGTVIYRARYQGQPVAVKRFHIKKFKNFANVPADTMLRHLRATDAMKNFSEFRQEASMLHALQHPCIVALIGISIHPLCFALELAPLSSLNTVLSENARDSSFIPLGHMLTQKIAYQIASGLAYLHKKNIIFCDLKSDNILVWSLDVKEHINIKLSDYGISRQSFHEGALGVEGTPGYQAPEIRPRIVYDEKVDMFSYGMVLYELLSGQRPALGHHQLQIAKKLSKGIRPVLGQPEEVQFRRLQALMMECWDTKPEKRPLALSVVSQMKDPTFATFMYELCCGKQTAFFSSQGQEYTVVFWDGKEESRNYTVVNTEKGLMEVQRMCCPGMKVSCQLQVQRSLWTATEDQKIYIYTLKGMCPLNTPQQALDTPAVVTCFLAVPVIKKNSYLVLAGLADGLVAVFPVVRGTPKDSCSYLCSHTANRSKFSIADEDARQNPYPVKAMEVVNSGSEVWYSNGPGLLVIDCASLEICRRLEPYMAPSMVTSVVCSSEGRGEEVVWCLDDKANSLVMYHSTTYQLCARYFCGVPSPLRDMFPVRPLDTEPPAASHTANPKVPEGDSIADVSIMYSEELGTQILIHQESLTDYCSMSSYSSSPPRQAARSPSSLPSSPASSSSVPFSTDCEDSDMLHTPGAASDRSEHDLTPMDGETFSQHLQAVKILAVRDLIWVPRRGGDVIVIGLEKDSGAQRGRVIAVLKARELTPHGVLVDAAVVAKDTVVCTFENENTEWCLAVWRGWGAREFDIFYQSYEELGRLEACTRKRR

With “3xFlag-LRRK1 wild-type (leucine-rich repeat kinase 1), full-length (from UniProt Q38SD2 1-2015) (enzyme)” the stoichiometry N [1] was 2.

“3xFlag-LRRK1 K650A GTP deficient binding mutant, full-length (from UniProt Q38SD2 1-2015) (enzyme)” showed a stoichiometry N [2] of 2.

“3xFlag-LRRK2 K1906M kinase dead mutant, full-length, Q5S007 1-2527” gave a stoichiometry N [3] of 2.

“3xFlag-LRRK2 T1348N GTP deficient binding mutant, full-length, Q5S007 1-2527” gave a stoichiometry N [4] of 2.

For “3xFlag-LRRK2 G2019S pathogenic mutant, full-length, Q5S007 1-2527”, the stoichiometry N [5] was 2.

Nc1ncnc2c1ncn2[C@@H]1O[C@H](COP(=O)(O)OP(=O)(O)OP(=O)(O)O)[C@@H](O)[C@H]1O [ATP] was tested, and the “pulldown from cell lysate on ATP-agarose, competed by free ATP” value (3xFlag-LRRK1) was “we confirm binding of both proteins to ATP using different ATP agarose beads” and the “pulldown from cell lysate on ATP-agarose, competed by free ATP” value (3xFlag-LRRK2) was “we confirm binding of both proteins to ATP using different ATP agarose beads”.

B1: 3xFlag-LRRK1 kinase dead mutant (K1269M; printed K1269W in the dimer experiment), full-length (enzyme)
chain: METLNGAGDTGGKPSTRGGDPAARSRRTEGIRAAYRRGDRGGARDLLEEACDQCASQLEKGQLLSIPAAYGDLEMVRYLLSKRLVELPTEPTDDNPAVVAAYFGHTAVVQELLESLPGPCSPQRLLNWMLALACQRGHLGVVKLLVLTHGADPESYAVRKNEFPVIVRLPLYAAIKSGNEDIAIFLLRHGAYFCSYILLDSPDPSKHLLRKYFIEASPLPSSYPGKTALRVKWSHLRLPWVDLDWLIDISCQITELDLSANCLATLPSVIPWGLINLRKLNLSDNHLGELPGVQSSDEIICSRLLEIDISSNKLSHLPPGFLHLSKLQKLTASKNCLEKLFEEENATNWIGLRKLQELDISDNKLTELPALFLHSFKSLNSLNVSRNNLKVFPDPWACPLKCCKASRNALECLPDKMAVFWKNHLKDVDFSENALKEVPLGLFQLDALMFLRLQGNQLAALPPQEKWTCRQLKTLDLSRNQLGKNEDGLKTKRIAFFTTRGRQRSGTEAASVLEFPAFLSESLEVLCLNDNHLDTVPPSVCLLKSLSELYLGNNPGLRELPPELGQLGNLWQLDTEDLTISNVPAEIQKEGPKAMLSYLRAQLRKAEKCKLMKMIIVGPPRQGKSTLLEILQTGRAPQVVHGEATIRTTKWELQRPAGSRAKVESVEFNVWDIGGPASMATVNQCFFTDKALYVVVWNLALGEEAVANLQFWLLNIEAKAPNAVVLVVGTHLDLIEAKFRVERIATLRAYVLALCRSPSGSRATGFPDITFKHLHEISCKSLEGQEGLRQLIFHVTCSMKDVGSTIGCQRLAGRLIPRSYLSLQEAVLAEQQRRSRDDDVQYLTDRQLEQLVEQTPDNDIKDYEDLQSAISFLIETGTLLHFPDTSHGLRNLYFLDPIWLSECLQRIFNIKGSRSVAKNGVIRAEDLRMLLVGTGFTQQTEEQYFQFLAKFEIALPVANDSYLLPHLLPSKPGLDTHGMRHPTANTIQRVFKMSFVPVGFWQRFIARMLISLAEMDLQLFENKKNTKSRNRKVTIYSFTGNQRNRCSTFRVKRNQTIYWQEGLLVTFDGGYLSVESSDVNWKKKKSGGMKIVCQSEVRDFSAMAFITDHVNSLIDQWFPALTATESDGTPLMEQYVPCPVCETAWAQHTDPSEKSEDVQYFDMEDCVLTAIERDFISCPRHPDLPVPLQELVPELFMTDFPARLFLENSKLEHSEDEGSVLGQGGSGTVIYRARYQGQPVAVWRFHIKKFKNFANVPADTMLRHLRATDAMKNFSEFRQEASMLHALQHPCIVALIGISIHPLCFALELAPLSSLNTVLSENARDSSFIPLGHMLTQKIAYQIASGLAYLHKKNIIFCDLKSDNILVWSLDVKEHINIKLSDYGISRQSFHEGALGVEGTPGYQAPEIRPRIVYDEKVDMFSYGMVLYELLSGQRPALGHHQLQIAKKLSKGIRPVLGQPEEVQFRRLQALMMECWDTKPEKRPLALSVVSQMKDPTFATFMYELCCGKQTAFFSSQGQEYTVVFWDGKEESRNYTVVNTEKGLMEVQRMCCPGMKVSCQLQVQRSLWTATEDQKIYIYTLKGMCPLNTPQQALDTPAVVTCFLAVPVIKKNSYLVLAGLADGLVAVFPVVRGTPKDSCSYLCSHTANRSKFSIADEDARQNPYPVKAMEVVNSGSEVWYSNGPGLLVIDCASLEICRRLEPYMAPSMVTSVVCSSEGRGEEVVWCLDDKANSLVMYHSTTYQLCARYFCGVPSPLRDMFPVRPLDTEPPAASHTANPKVPEGDSIADVSIMYSEELGTQILIHQESLTDYCSMSSYSSSPPRQAARSPSSLPSSPASSSSVPFSTDCEDSDMLHTPGAASDRSEHDLTPMDGETFSQHLQAVKILAVRDLIWVPRRGGDVIVIGLEKDSGAQRGRVIAVLKARELTPHGVLVDAAVVAKDTVVCTFENENTEWCLAVWRGWGAREFDIFYQSYEELGRLEACTRKRR
For B1, the “stoichiometry N” value [6] was 2.

— article PMC3430690 (PLoS ONE, 2012)
